From the supplement of paper PMC6757056
± gives the standard deviation of the averaged measurements.

B1: library; a variant is named by its letters at N, in order (parent)
chain: GCUGUCACCGGUGCUUGGUACGUUAUAUUCAGCCGGUCUGAUGAGUCUNNNNNNAGACGAAACAGC

Tests used:
(6R,S)-folinic acid [1] = variants of: B1; assay: FACS-Seq fitted mean relative fluorescence mCherry/BFP without ligand (log10 relative fluorescence); HEK293T overexpressing SLC46A1; higher = higher reporter protein expression; conditions: without (6R,S)-folinic acid; ligand present: no
Procedure, shortened: (§1)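 To measure fluorescence, a normal distribution was fitted to read counts across sorted bins. The reporter libraries were HEK293T cells transduced by lentivirus with mCherry under ribozyme-switch control and an EF1α-BFP marker, enriched and then kept with or without ligand for 48 h. Sorting used 6 mCherry/BFP bins, and bin genomic DNA was PCR-amplified and sequenced on MiSeq. Fitted means of log10(mCherry/BFP) were scaled to five spiked-in control ribozymes.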

(6R,S)-folinic acid [2] = variants of: B1; assay: normalized RNA/DNA level without ligand (relative to sTRSVctl = 100) (log10 (% of sTRSVctl)); HEK293T overexpressing SLC46A1; higher = less ribozyme self-cleavage, higher mRNA level; conditions: without (6R,S)-folinic acid; ligand present: no
Protocol: (§2)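 Hammerhead (sTRSV) ribozyme switch libraries with a ligand aptamer grafted on stem I and a randomized N4-6 loop II, cloned into the 3' UTR of mCherry and transiently transfected into HEK293T cells; RNA-Seq 72 h post transfection with ligand added 1 h before transfection; RNA read count / plasmid DNA read count normalized to the non-cleaving sTRSVctl (x100), log10; sequences with >100 DNA reads. FACS-Seq: lentiviral library sorted into 6 bins after 48 h ligand, log-normal fit mean of mCherry/BFP scaled to controls. Printed sequences are partial switch sequences.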

(6R,S)-folinic acid [3] = variants of: B1; assay: FACS-Seq fitted mean relative fluorescence mCherry/BFP with ligand (log10 relative fluorescence); HEK293T overexpressing SLC46A1; ligand concentration (+) FACS-Seq: 6 mM; higher = higher reporter protein expression; conditions: with (6R,S)-folinic acid; ligand present: yes
Procedure, shortened: as §1

(6R,S)-folinic acid [4] = variants of: B1; assay: normalized RNA/DNA level with ligand (relative to sTRSVctl = 100) (log10 (% of sTRSVctl)); HEK293T overexpressing SLC46A1; ligand concentration (+) RNA-Seq: 6 mM; higher = less ribozyme self-cleavage, higher mRNA level; conditions: with (6R,S)-folinic acid; ligand present: yes
Protocol: as §2

Variant	FACS-Seq fitted mean (log10) ((6R,S)-folinic acid [1])	normalized RNA/DNA level without ligand (log10) ((6R,S)-folinic acid [2])	FACS-Seq fitted mean (log10) ((6R,S)-folinic acid [3])	normalized RNA/DNA level with ligand (log10) ((6R,S)-folinic acid [4])
AAGCCU	0.313 ± 0.032	2.056 ± 0.015	0.326 ± 0.052	2.03 ± 0.027
UAGGUG	0.228 ± 0.037	1.68 ± 0.017	0.559 ± 0.21	1.96 ± 0.033
UAGGUA	0.246 ± 0.04	1.878 ± 0.0067	0.0784 ± 0.099	1.98 ± 0.031
GAGUCC	0.0836 ± 0.051	2.04 ± 0.027	0.569 ± 0.064	2.04 ± 0.03
GAGUCA	-0.101 ± 0.0028	1.998 ± 0.011	-0.24 ± 0.16	2.01 ± 0.0086
GACGGA	0.373 ± 0.037	1.991 ± 0.014	0.557 ± 0.19	2.05 ± 0.033
GACGGU	0.318 ± 0.049	1.994 ± 0.016	0.486 ± 0.32	2.01 ± 0.029
GACGGG	0.31 ± 0.087	1.99 ± 0.011	0.302 ± 0.24	2.04 ± 0.051
GACGCC	0.287 ± 0.023	2.043 ± 0.0061	0.0736 ± 0.3	2.03 ± 0.028
AAGAUC	0.442 ± 0.061	2.04 ± 0.0043	0.504 ± 0.1	2.02 ± 0.029
AAGAUU	0.318 ± 0.11	2.007 ± 0.0072	0.312 ± 0.032	2.02 ± 0.022
AAGAUG	0.3831 ± 0.00047	1.8871 ± 0.00048	0.235 ± 0.29	1.997 ± 0.018
AAGAUA	-0.141 ± 0.082	1.959 ± 0.0077	-0.581 ± 0.18	1.994 ± 0.015
AACGUU	0.445 ± 0.028	1.991 ± 0.012	0.286 ± 0.094	1.98 ± 0.038
AACGUG	0.4305 ± 0.0017	1.874 ± 0.0049	0.715 ± 0.2	1.98 ± 0.029
AACGUA	0.196 ± 0.079	1.9883 ± 0.00019	0.207 ± 0.071	2.02 ± 0.026
UACGGG	0.198 ± 0.013	1.704 ± 0.0067	0.717 ± 0.3	1.97 ± 0.053
UACGGU	0.419 ± 0.099	1.918 ± 0.012	0.282 ± 0.041	1.98 ± 0.024
UACGGA	0.537 ± 0.046	1.8816 ± 0.00018	0.817 ± 0.11	2 ± 0.029
AAGGAG	0.211 ± 0.081	1.789 ± 0.017	0.263 ± 0.14	2 ± 0.046
AAGGAU	0.466 ± 0.0051	1.917 ± 0.0072	0.53 ± 0.073	1.966 ± 0.013
AAGGAA	0.513 ± 0.14	1.937 ± 0.01	0.429 ± 0.1	2 ± 0.023
GAGGAU	0.372 ± 0.013	1.963 ± 0.0066	0.0226 ± 0.65	2.02 ± 0.033
UACCUG	0.402 ± 0.083	1.86 ± 0.039	0.39 ± 0.14	1.99 ± 0.052

Variant	FACS-Seq fitted mean (log10) ((6R,S)-folinic acid [1])	normalized RNA/DNA level without ligand (log10) ((6R,S)-folinic acid [2])	FACS-Seq fitted mean (log10) ((6R,S)-folinic acid [3])	normalized RNA/DNA level with ligand (log10) ((6R,S)-folinic acid [4])
UACCUC	0.402 ± 0.35	2.052 ± 0.0094	0.585 ± 0.43	2.04 ± 0.049
UAGAGA	0.273 ± 0.12	1.807 ± 0.015	0.551 ± 0.33	1.99 ± 0.029
UAGAGG	0.0109 ± 0.02	1.561 ± 0.013	0.481 ± 0.11	1.9 ± 0.052
UAGAGC	0.0862 ± 0.082	1.93 ± 0.022	0.445 ± 0.031	1.99 ± 0.048
UACUGG	0.0573 ± 0.058	1.65 ± 0.049	0.433 ± 0.099	1.97 ± 0.039
UACUGC	0.238 ± 0.013	2.01 ± 0.0074	0.329 ± 0.25	2.02 ± 0.049
CAGUAA	0.289 ± 0.13	1.955 ± 0.0021	0.23 ± 0.14	1.99 ± 0.023
GAGCGA	0.146 ± 0.064	1.997 ± 0.0086	0.145 ± 0.15	2.035 ± 0.011
CAGAUA	0.631 ± 0.27	1.959 ± 0.008	0.663 ± 0.087	1.97 ± 0.027
AACCUU	0.578 ± 0.19	2.044 ± 0.0052	0.59 ± 0.22	2.042 ± 0.02
AACCUA	-0.147 ± 0.17	2.0051 ± 8.4e-05	-0.514 ± 0.18	2.02 ± 0.034
AAGUAG	0.445 ± 0.099	1.89 ± 0.021	0.443 ± 0.18	1.987 ± 0.018
AAGUAA	0.225 ± 0.044	1.94 ± 0.021	0.18 ± 0.26	2 ± 0.043
GAGAGG	0.109 ± 0.067	1.901 ± 0.012	0.336 ± 0.41	2.03 ± 0.026
GAGAGU	0.347 ± 0.02	1.982 ± 0.013	0.471 ± 0.28	2.014 ± 0.0034
GAGAGA	0.2 ± 0.041	1.946 ± 0.011	0.279 ± 0.16	2.01 ± 0.038
CAGACA	0.583 ± 0.12	2.017 ± 0.00058	0.769 ± 0.2	1.98 ± 0.02
CAGACC	0.131 ± 0.097	2.04 ± 0.012	0.261 ± 0.16	1.99 ± 0.031
UACUAU	0.437 ± 0.19	1.967 ± 0.018	0.489 ± 0.21	2.03 ± 0.023
CAGGCU	0.511 ± 0.14	2.055 ± 0.0024	0.544 ± 0.066	2.01 ± 0.036
GACUUG	0.321 ± 0.035	1.956 ± 0.018	0.389 ± 0.13	1.99 ± 0.039
CACGCA	0.164 ± 0.12	2.025 ± 0.013	0.119 ± 0.063	2.024 ± 0.011
UAGAAG	0.056 ± 0.02	1.654 ± 0.0022	0.456 ± 0.0016	1.963 ± 0.019
UAGAAU	0.421 ± 0.089	1.921 ± 0.016	0.615 ± 0.02	2 ± 0.041

Variant	FACS-Seq fitted mean (log10) ((6R,S)-folinic acid [1])	normalized RNA/DNA level without ligand (log10) ((6R,S)-folinic acid [2])	FACS-Seq fitted mean (log10) ((6R,S)-folinic acid [3])	normalized RNA/DNA level with ligand (log10) ((6R,S)-folinic acid [4])
UAGAAA	0.332 ± 0.024	1.9239 ± 0.0006	0.254 ± 0.35	2.01 ± 0.023
UAGGAU	0.37 ± 0.051	1.9235 ± 0.00039	0.358 ± 0.23	2 ± 0.052
UAGGAA	0.503 ± 0.15	1.884 ± 0.01	0.822 ± 0.011	1.98 ± 0.038
UAGGAC	0.556 ± 0.12	1.982 ± 0.019	0.551 ± 0.11	2 ± 0.025
UAGGGG	0.0613 ± 0.073	1.648 ± 0.0041	0.172 ± 0.14	1.97 ± 0.04
UAGGGU	0.607 ± 0.2	1.885 ± 0.015	0.604 ± 0.026	1.98 ± 0.049
UAGGGA	0.295 ± 0.13	1.8512 ± 0.0012	0.501 ± 0.29	2 ± 0.03
AACGCU	0.282 ± 0.034	2.01 ± 0.0054	0.217 ± 0.34	2 ± 0.035
AACGCA	0.404 ± 0.048	2.001 ± 0.013	0.533 ± 0.023	2 ± 0.035
AACGCC	0.452 ± 0.091	2.0652 ± 0.0011	0.336 ± 0.023	2.07 ± 0.046
CACGAU	0.217 ± 0.11	1.99 ± 0.027	0.334 ± 0.6	2.01 ± 0.021
AAGCAA	0.352 ± 0.078	1.964 ± 0.015	0.361 ± 0.1	1.994 ± 0.012
AAGCAU	0.218 ± 0.067	1.953 ± 0.019	0.102 ± 0.024	2.01 ± 0.039
GAGCCA	0.191 ± 0.0078	2.023 ± 0.02	0.281 ± 0.24	2.02 ± 0.047
GAGCCG	0.537 ± 0.069	2.047 ± 0.0093	0.419 ± 0.15	2.03 ± 0.05
GAGCCU	0.306 ± 0.041	2.076 ± 0.012	0.5133 ± 0.00087	2.062 ± 0.0057
GAGGGU	0.338 ± 0.027	2.001 ± 0.016	0.556 ± 0.037	2.04 ± 0.041
GAGGGA	0.161 ± 0.042	1.969 ± 0.017	0.0592 ± 0.019	2.04 ± 0.028
UAGACG	0.218 ± 0.052	1.754 ± 0.0068	0.17 ± 0.055	1.97 ± 0.029
UAGACU	0.606 ± 0.02	2.0068 ± 0.00026	0.559 ± 0.038	1.98 ± 0.051
UAGACA	0.386 ± 0.0059	1.967 ± 0.0049	0.455 ± 0.17	2 ± 0.029
GAGACU	0.361 ± 0.041	2.022 ± 0.0074	0.232 ± 0.024	2.02 ± 0.022
GACGUG	0.598 ± 0.2	1.946 ± 0.019	0.734 ± 0.17	2.01 ± 0.029
